In publication PMC3020710 (The Journal of Biological Chemistry, 2010):
Like-named read-outs stand apart in the source and are kept apart here.

B1: His-Sox2 aa 1-240 (domain or fragment)
chain: not shown
B2: His-Sox2 (full length) (natural protein)
chain: not shown

Assays:
[1] = molecular target: T1, GST-Sall1 (full length) (mouse, UniProt Q9ER74 1-1322); assay: pull-down
T1 sequence (looked up): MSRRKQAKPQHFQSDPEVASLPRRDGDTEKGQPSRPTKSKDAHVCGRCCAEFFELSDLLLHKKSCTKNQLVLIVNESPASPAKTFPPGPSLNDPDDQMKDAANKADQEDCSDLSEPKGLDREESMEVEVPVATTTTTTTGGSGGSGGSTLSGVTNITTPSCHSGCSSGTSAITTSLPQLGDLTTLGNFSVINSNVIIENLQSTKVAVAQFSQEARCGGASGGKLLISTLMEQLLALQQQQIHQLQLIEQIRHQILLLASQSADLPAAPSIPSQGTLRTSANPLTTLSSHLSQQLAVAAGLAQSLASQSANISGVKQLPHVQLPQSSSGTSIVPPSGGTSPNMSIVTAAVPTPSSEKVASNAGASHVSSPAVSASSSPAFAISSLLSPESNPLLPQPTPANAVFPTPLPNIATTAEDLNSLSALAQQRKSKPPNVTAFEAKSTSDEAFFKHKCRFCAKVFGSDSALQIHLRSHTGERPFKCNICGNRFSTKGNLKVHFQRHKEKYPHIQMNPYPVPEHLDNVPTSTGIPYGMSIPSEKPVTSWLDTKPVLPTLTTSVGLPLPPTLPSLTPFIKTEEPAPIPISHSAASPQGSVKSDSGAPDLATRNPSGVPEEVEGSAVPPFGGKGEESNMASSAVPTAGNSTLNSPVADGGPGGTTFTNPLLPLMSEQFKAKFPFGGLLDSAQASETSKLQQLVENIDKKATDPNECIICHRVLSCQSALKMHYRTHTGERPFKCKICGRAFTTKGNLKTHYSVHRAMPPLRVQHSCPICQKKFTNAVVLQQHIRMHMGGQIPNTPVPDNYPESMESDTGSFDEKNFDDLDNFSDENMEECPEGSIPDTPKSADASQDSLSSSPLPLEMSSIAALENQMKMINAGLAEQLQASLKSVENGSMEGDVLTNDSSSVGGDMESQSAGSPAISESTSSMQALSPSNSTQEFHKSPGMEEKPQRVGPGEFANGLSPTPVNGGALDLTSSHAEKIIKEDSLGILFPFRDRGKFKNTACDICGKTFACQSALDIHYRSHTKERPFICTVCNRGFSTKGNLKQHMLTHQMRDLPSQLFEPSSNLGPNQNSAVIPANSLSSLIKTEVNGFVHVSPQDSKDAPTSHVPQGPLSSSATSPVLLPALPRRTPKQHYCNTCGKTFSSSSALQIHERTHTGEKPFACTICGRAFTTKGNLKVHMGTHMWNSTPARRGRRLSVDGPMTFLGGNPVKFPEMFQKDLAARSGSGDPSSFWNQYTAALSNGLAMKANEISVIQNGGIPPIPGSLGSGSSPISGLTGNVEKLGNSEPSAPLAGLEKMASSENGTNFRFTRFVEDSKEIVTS

[2] = molecular target: T1, GST-Sall1 (full length); assay: pull-down; remark: listed apart in the source

| Binder | binding result [1] | binding result [2] |
| --- | --- | --- |
| B1 | binds |  |
| B2 | binds | binds |
